One assay concerns the target T1, HLA-A*02:01 (human).
T1 construct: also called HLA-A2
Put plainly: stable pHLA monomer refolding.

Assay [1] has as its target T2, Jchain (joining chain) peptide on HLA-A*01:01 (human).
T2 peptide: YTAVVPLVY
Nature of the assay: multimer staining.

The target in assay [2] is T3, Jchain (joining chain) peptide on HLA-A*03:01 (human).
T3 peptide: ISDPTSPLRTR
Put plainly: killing.

Assay [3] concerns the target T4, Jchain (joining chain) peptide on HLA-A*11:01 (human).
T4 peptide: ISDPTSPLRTR
Nature of the assay: NSG mice with established U266 + HLA-A11 + luciferase; 3-6x10^6 TCR-transduced CD8 T cells i.v.; bioluminescence; full-length, on cells.
Text: (§1) Subsequently, mice were infused with 3-6×10\hat{ }6 Jchain HLA-A1, -A24, -A3 or -A11 TCR or irrelevant CMV TCR Td CD8 T cells after which tumor outgrowth was followed measuring bioluminescence at regular intervals (FIG. 7A,B).

Assay [4] addresses T4, Jchain (joining chain) peptide on …. Nature of the assay: killing.
In assay [5] the target is T3, Jchain (joining chain) peptide on …. Put plainly: NSG mice with established wild-type HLA-A3pos U266 + luciferase; TCR-transduced CD8 T cells i.v.; bioluminescence; complete eradication in hIL-7/hIL-15 NSG mice (FIG. 15); full-length, on cells.
The target in another assay is HLA-A*24:02 (human). Put plainly: stable pHLA monomer refolding.
A further assay deals with HLA-B*40:01 (human). Put plainly: stable pHLA monomer refolding.
Assay [6] addresses T5, Jchain (joining chain) peptide on HLA-A*24:02 (human).
T5 peptide: CYTAVVPLV
Put plainly: NSG mice with established U266 + HLA-A24 + luciferase; 3-6x10^6 TCR-transduced CD8 T cells i.v.; bioluminescence; full-length, on cells.
Text: as §1

Another assay deals with T6, HLA-A*03:01 (human).
T6 construct: also called HLA-A3
Nature of the assay: stable pHLA monomer refolding.

Another assay has as its target HLA-A*11:01 (human). Put plainly: stable pHLA monomer refolding.
A further assay addresses T7, HLA-A*01:01 (human).
T7 construct: also called HLA-A1
Nature of the assay: stable pHLA monomer refolding.

Turning to YTAVVPLV [Jchain derived peptide YTAVVPLV (SEQ ID NO: 105)], the binding result with HLA-A*02:01 is “binds”.

B1: TCR clone 4G8.8 (TCR, V domains shown)
Valpha: AQTVTQSQPEMSVQEAETVTLSCTYDTSENNYYLFWYKQPPSRQMILVIRQEAYKQQNATENRFSVNFQKAAKSFSLKISDSQLGDTAMYFCAFMKHVEYGNKLVFGAGTILRVKS
Vbeta: DAGITQSPRHKVTETGTPVTLRCHQTENHRYMYWYRQDPGHGLRLIHYSYGVKDTDKGEVSDGYSVSRSKTEDFLLTLESATSSQTSVYFCAARDSANEKLFFGSGTQLSVL
For B1, the binding result in assay [1] is reported as “recognises”.
Turning to VLAVFIKAV (also called VLA2 peptide) [Jchain derived peptide VLAVFIKAV (SEQ ID NO: 104)], the binding result with HLA-A*02:01 is “binds”.

B2: TCR clone 13F6.6 (TCR, V domains shown)
Valpha: AQSVSQHNHHVILSEAASLELGCNYSYGGTVNLFWYVQYPGQHLQLLLKYFSGDPLVKGIKGFEAEFIKSKFSFNLRKPSVQWSDTAEYFCAASSGGYQKVTFGIGTKLQVIP
Vbeta: DVKVTQSSRYLVKRTGEKVFLECVQDMDHENMFWYRQDPGLGLRLIYFSYDVKMKEKGDIPEGYSVSREKKERFSLILESASTNQTSMYLCASSLRREVGDTQYFGPGTRLTVL
Turning to B2, in assay [1], the binding result was “recognises”.

B3: TCR clone 16C7.9 (TCR, V domains shown)
Valpha: AQKITQTQPGMFVQEKEAVTLDCTYDTSDPSYGLFWYKQPSSGEMIFLIYQGSYDQQNATEGRYSLNFQKARKSANLVISASQLGDSAMYFCAMREDYTGGFKTIFGAGTRLFVKA
Vbeta: GAGVSQTPSNKVTEKGKYVELRCDPISGHTALYWYRQSLGQGPEFLIYFQGTGAADDSGLPNDRFFAVRPEGSVSTLKIQRTERGDSAVYLCASSLISGGNEQFFGPGTRLTVL
As for B3, in assay [2], the binding result is given as “no recognition”. For the same molecule, the “fold lower tumor load than in CMV TCR control mice” value (“fold lower tumor load than” for short) in [3] came out at 190 fold.

B4: TCR clone 5C8.16 (TCR, V domains shown)
Valpha: AQSVTQLDSHVSVSEGTPVLLRCNYSSSYSPSLFWYVQHPNKGLQLLLKYTSAATLVKGINGFEAEFKKSETSFHLTKPSAHMSDAAEYFCVVKWADSWGKLQFGAGTQVVVTP
Vbeta: AAGVIQSPRHLIKEKRETATLKCYPIPRHDTVYWYQQGPGQDPQFLISFYEKMQSDKGSIPDRFSAQQFSDYHSELNMSSLELGDSALYFCASSLGTGNFYEQYFGPGTRLTVT
For the molecule B4, the binding result in assay [4] is reported as “no recognition”. In addition, the “fold lower tumor load than” value in [5] was determined as 70 fold.
For CYTAVVPLV (also called CYT peptide) [Jchain derived peptide CYTAVVPLV (SEQ ID NO: 100)], the binding result with HLA-A*24:02 is reported as “binds”.
Turning to GETKMVETAL (also called GET peptide) [Jchain derived peptide GETKMVETAL (SEQ ID NO: 107)], the binding result with HLA-B*40:01 is “binds”.

B5: TCR clone 10H11.11 (TCR, V domains shown)
Valpha: EDQVTQSPEALRLQEGESSSLNCSYTVSGLRGLFWYRQDPGKGPEFLFTLYSAGEEKEKERLKATLTKKESFLHITAPKPEDSATYLCAVLSGGSYIPTFGRGTSLIVHP
Vbeta: DTGVSQDPRHKITKRGQNVTFRCDPISEHNRLYWYRQTLGQGPEFLTYFQNEAQLEKSRLLSDRFSAERPKGSFSTLEIQRTEQGDSAMYLCASSPLLRDSEEKLFFGSGTQLSVL
Turning to B5, in assay [6], the “fold lower tumor load than” value turned out to be 209 fold.
Take ISDPTSPLRTR (also called ISD peptide) [Jchain derived peptide ISDPTSPLRTR (SEQ ID NO: 101)]: the binding result with HLA-A*03:01 and with HLA-A*11:01 was “binds” in each case.
On to TAVVPLVY (also called TAV peptide) [Jchain derived peptide TAVVPLVY (SEQ ID NO: 102)], for which, in the assay with HLA-A*01:01, the binding result is reported as “binds”.
VLAVFIKAVHV (also called VLA1 peptide) [Jchain derived peptide VLAVFIKAVHV (SEQ ID NO: 103)]: the binding result in the assay with HLA-A*02:01 was “binds”.
With RIIVPLNNR (also called RII peptide) [Jchain derived peptide RIIVPLNNR (SEQ ID NO: 106)], the binding result in the assay with HLA-A*11:01 was “binds”.

The values above are taken from patent US20250177443A1 (ACADEMISCH ZIEKENHUIS LEIDEN H O D N LUMC, published 2025).
